Experimental findings from the nanobody polyreactivity screen of Harvey et al. (2022) are described below.

This series can be described thus: yeast display, Sf9 membrane polyspecificity reagent, FACS + sequencing; frameworks hold sequencing errors. The gist of the method:
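Nanobodies came from a synthetic yeast display library in Saccharomyces cerevisiae BJ5465, induced with galactose for 36–48 hours and stained for 1 hour at 4 °C with 10% biotinylated, detergent-solubilized Sf9 membrane reagent. Cells were enriched on streptavidin microbeads and then FACS-sorted, with low and high (top ~1%) gates set on anti-HA fluorescence for expression and streptavidin fluorescence for reagent binding. Each polyreactivity label reflects the gate a clone came from. Genes were amplified by colony PCR, sequenced by MiSeq 2 × 250 and filtered by CDR length.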
“QVQLVESGGGLVQAGGSLRLSCAASGFTFSRNTMGWYRPAPGKERELVAAIDSTGGSTYYADSVKGRFTISRDNAKNTVYLQMNSLKPEDTAVYYCATVLPDGRVWYEGYYWGQGTQVTVSS”: the “polyreactivity (PSR sort gate)” value is given as “low polyreactivity”.
The entry for “QVQLVESGGGLVQAGGSLRLSCAASGSIFDINAMGWYRQAPGKERELVADISWSGGRTYYADSVKGRFTISRDNAKNTVYLQMNSLKPEDTAVYYCNAQDSRFWYAEYDYWGQGNQVTVSS” is “low polyreactivity”.
The entry for “QVQLVESGGGLVQAGGSLRISCAPSGIIFYQNTMGWYRQAPGKERELVATITKRGGSSYYADSVKGRFTISRDNAKNTVYLQMNSLKPEDTAVYYCNAAKYAASYIGYGYWGQGTQVTVSS” is “high polyreactivity”.
The same measure for “QVQLVESGGGLVQAGGSLRLSCAASGFIFYKYAMGWYRQAPGKERELVAAITRSGGSTYYADSVKGRFTISRDNAKNTVYLQMNSLKPEDTAVYYCAKRSYRARDAVPGGFDSWGQGTQVTVSS”: “high polyreactivity”; for “QVQLVESGGGLVQAGGSLRLSCAASGSIFYLYAMGWYRQAPGKEREFVAAITSSSGSTHYADSVKGRFTISRDNAKNTVYYQMNSLKPEDTAVYYCAKDYGPWTYDYWGQGTQVTVSS”: “low polyreactivity”; for “QVQLVESGGGLVQAGGSLLLSCAASGRTFSRNAMGWYRQAPGKERELVASIRSGGTTNYADSVKGRFTISRDNAKNTVYLQMNSLKPEVTAVYYCNAGDTFLDPCSQYLFDYWGQGTLVTVSS”: “low polyreactivity”.
For “QVQLVESGGGLVQAGGSLRLSCAASGFTFYRYALGWYRQAPGKERELVAAISQRGGTTYYADSVKGRFTISRDNAKNTVYLQMNSLKPEDTAVYYCAKDRYYYPGNYWGQGTQVTVSS”, the “polyreactivity (PSR sort gate)” value is “high polyreactivity”.
The same measure for “QVQLVESGGGLVQAGGSLRLSCAASGSIFAHYAMGWYRQAPGKERELVARISWSGGSTYYADSVKGRFTISRDNEKNTVYLQKNSMKPEDTAVYYCARAGRSWDTLYKYYLEHDYWGQGTQVTVSS”: “low polyreactivity”; for “QVQLVESGGGLLQAGGSLRLSCASSGRTFARYVMGWYRQAPGKERELVAAITRSGGSTYYADSVKGRFTISRDNAKNTVYLQMNSMKPEDTAVYYCAATLRWGLYNTFYSTFNVSYYYWGQGTQVTVSS”: “high polyreactivity”.
Turning to “QVQLVESGGGLVQAGRSLRLSCAASGRIFSTNAMGRYRQAPGKERELVAAITRSSSTYYAYSVKGRFTISLDNAKNTVYLQINSLKPEDTAGYYCAASRFQYKSTQFYYWGQATQVTVSS”, the “polyreactivity (PSR sort gate)” value is given as “high polyreactivity”.
The same measure for “QVQIVESCGGLVQAGGSHRLSCAASGSTFVPNAMGWYRQAPGKEREFVAAISRIGGTYYADSVKGRFTISRDNEKNTVYLLMNCLKPEDNAVYYCAAEPSSVGYHVEYDYWGQGTQVTVSS”: “low polyreactivity”; for “QVQLVESGGGLVQAGGSLRLSCAASGRIFVVYAMGWYRQAPGKESELVATISGGSTNYADSVKGRFTISRDNAKNTVYLQMNSVKPDDTAVYYCGMEYWGQGTQVTVSS”: “low polyreactivity”; for “QVQLVESGGGLVQAGGSLRLSCAASGFTFVAYAMGWYRQAPGKERELVAAISRRGGTTYYADSVKGRFTISRDNEKNTVYLQMNSLKPEDTAVYYCNARSNFAFYRGNWAYDYWGQGTQVTVSS”: “high polyreactivity”.
The same measure for “QVQLVESGGGIVQAGGSLRLSCAASGSIIGPNTMGWYRQAPGKERELVAAIRGGGSTNYADSVKGRFTISRDNAKNTVYLQMNSLKPEDTAVYYCNATWNLFPGVLDRYDYWGQGTQVTVSS”: “low polyreactivity”; for “QVQLVESGAGLVQAGGSLRLSCAASGFTFFGDYAMGWYRQAPGKERELVAAIDWSGGTTYYADSVKGRFTISRDNAKNTVYLQMNSLKPEDTAVYYCARRYYYSYPPQEDDYWGQGTQVTVSS”: “high polyreactivity”; for “QVQLVESGGGLVQAGGSLRLSCAASGSTFYYYAMGWYRPAPGKEREFVASISSRGTSTYYADSVKGRFTISRDNAKNTVYIQMISLKPEDTAVDYGAARVWGPTRAYDYWGQGTQVTVSS”: “high polyreactivity”.
The entry for “QVQLVESGGGKVQAGGSLRLSCASSGFTYDSNAMGSYRQAPGKERELVAAISTGGSTYYADSVKGPFTISRDNANITVYLQMYSLKPEDTAVYYCARDPPYPDTWYGYWGQGTQVTVSS” is “low polyreactivity”; for “QVQLVESGGGLVQAGGSLRLSCAASGRIFYSYGMGWYRQAPGKERELVASITISGGGSTYYADSVKGRFTISRDNAKNTVYLQMNSLKPEDTAVYYCAATRTVWKYIYDYWGQGTQVTVSS” it is “high polyreactivity”.
Consider “QVQRVESGGGLVQAGGSLRLSCAGSGRIFVQYAMGWYRQAPGKERELVAAISGSGGRTYYADSVKGRFTISRDNAKNTVYLQMNSLKPEDTAVYYCARRGAYTGRYDYWGQGTQVTVSS”, for which the “polyreactivity (PSR sort gate)” value is recorded as “high polyreactivity”.
In the case of “QVQLVESVGGLVQAGGSLRLSCAASGRTFAYYTMGWYRQAPGKERELVARISGYGGSTYYADSVKGRFTISRDNAKNTVYLQMNSLKPEDTAVYYCNVVGAYYRYDYWGQGTQVTVSS”, the “polyreactivity (PSR sort gate)” value is listed as “high polyreactivity”.
The entry for “QVQLVESGGGLVQAGGSLRLSCAASGRTLIAYAMGWYRQAPGKEREFVAAIRADDGRTYYADSVKGRFTISRDNAKNTVYLQMNSLKPEDTAVYYCATKADKRYGFGYWGQGTQVTVSS” is “high polyreactivity”; for “QVQLVESGGGLVQAGGSLRFSCAASGTFVPYAMGWYRQAPGKEMELVARITWRGGSTYYADSVKGRFTISRDNAKNTVYLQMNSLKPEDTAVYYCATVSDNRYYYWGQGTQVTVSS” it is “low polyreactivity”; for “QVQLVESGGGLVQAGGSLRLSCAASGSIFHSYAMGWYRQAPGKEREFVASITQRVGRTNYADSVKGRFTISRDNAKNTVYLQMISLKPEDTAVYYCAASSWRLYYRRDSWGQGTQVTVSS” it is “high polyreactivity”.
The entry for “QVQLVESGGALVQAGGSLRLSCAASGSIFSEYAMGWYRQAPGKERELVAAISRSGGTTYYADSVKGRFSISRDNAKNTVYLQMNSLKPEDTAVYYCAARYFRGSYPMGYWGQGTQVTVSS” is “high polyreactivity”; for “QVQLVESGGALVQAGGSLRLSCAASGSTFAYNAMGWYRQAPVKERELVAAITWNGGDTYYADSVKGRFTISRDNAKNTVYLQMNSLKPEDTAVYYCAAEDTYYRDSDYWGQGTQVTVSS” it is “low polyreactivity”; for “QVKLEESGGGLVQAGGSLRLTCAASGSTFTYYAMGWYRQAPGKERELVAAITFRGDSTYYADSVKGRFTFSRDNAKNTVYLQMNSLKPEDTAVYYWGQGTQVTVSS” it is “low polyreactivity”.
With “QVQLVESGGGLVQAGGSLRLSCAASGQIFFVYAMGRYRQAPGKESELVAAISFSAGRTYYADSVKGRFTISRDNAKNTVYLQMNSLKPEDTAVYYCNALRQDTGHYPYDYWGQGTQVTVSS”, the “polyreactivity (PSR sort gate)” value is reported as “low polyreactivity”.
The entry for “QVQLVESGGGLVQAGGSLRLSCAASGSTFKGYAMGWYRQAPGKERELVAAITWSSGRTYYADSVKGRFTISRDNAKNTVYLQMNSLKPEDTAVYYCAAKSRRTRRSYYWGQGTQVTVSS” is “high polyreactivity”.
The entry for “QVQLVESGGGLVQAGGSLRLSCAASGYTFTGYALGWYRQAPGKERELVAAITSIGGSTYYADSVKGRFTISRDNAKNTVYLQMNSLKPEDTAVYYCAAEGDYVYDMDYWGQGTQVTVSS” is “low polyreactivity”; for “QVQLEESGGRLVQAGGSLRLSCAASGSTFQTYAMGWYRQAPGKERELVAAITWRGGSTYYADSVKGRFTISRDNAKNTVYLQMNSLKPEDTAVYYCAAKWHGAHDHRAAYESWGQGTQVTVSS” it is “low polyreactivity”.
In the case of “QVQLVESGGGLVQAGGSLRLSCAATGFTFIPYAMGWYRQAPGKERELVAGITIGGRTNNADSVKGRFTISRDNAKNTVYLQMNSLKPEDTAVYYCNAGVYLYVTSKYWYYYWGQGTQVTVSS”, the “polyreactivity (PSR sort gate)” value is reported as “high polyreactivity”.
The same measure for “QVQLVESGGGLVQAGGSLRLSCAASGSIFLRNAMGWYRQAPGKERELVAAITYSSGSTYYADSVKGRFTISRDNAKNTVYLQMNSLKPEDTAVYYCAATSRSSRRYYYWGQGTQVTVSS”: “high polyreactivity”.
The same measure for “QVQIVESGGGLVQAGGSLSLSCAASGSILDQYAMGWYRQAPGKERELVAAITAIGDSTYYADSLKGRFTISRDNAKYTVYLQMYSLKPEVTAVYYCAGTYVGSDGGDYWGQGTQVTVAS”: “low polyreactivity”.
The same measure for “QVHLVESGGGLVQAGGSLRLICAASGSIFRRYAMGWYRQAPGKERELVASISSRGTRTYYADSVTWRFTISRDNAKNTVYLQMNSLKPEDTAVYYCAASYYTPYDYLGQGTQVTVSS”: “high polyreactivity”.
As for “QVQLVESGGGLVQAGGSLRLSCAASGSTFAWYTMGWYRQAPGKERELVARISGSVGSTYYADSVKGRFTISRDNAKNTVYLQMNSLKPEDTAVYYCAAVYDEDQYDYWGQGTQVTVSS”, the “polyreactivity (PSR sort gate)” value was “low polyreactivity”.
The same measure for “QVQLVESGGGLVQAGGSLRLSCAASGRTFHRYAMGWYRQAPGKERELVAAITSSGGSTNYADSVKGRFTISRDYAKNTVYLQMNSLKPEDTAVYYCATDRYRYTSHPWSRGFDYWGHGTQVTVSS”: “low polyreactivity”; for “QVQLVESGGGIVQAGGSLRLSCAASGRNFIHYAMGGYRQAPGKERELVAAISWGGGRTYYADSEKGRFTISRDNAKNTVYLQMNSLKPEDTAVYYCAAAGRGSGYDYWGQGTQVTVSS”: “high polyreactivity”.
The same measure for “QVQHEDSGGGLVQAGGSHRVSCAASGSTFAYNAMGGSRKAPGKERELVATISTDGSTYADSVKGRFTISRDNAQNTVYLQMNSLKPEDTAVYYCNADGHPSDPGYDYWGQGTQVTVSS”: “low polyreactivity”; for “QVHLVESGGGLVQAGGSLRLSCAASGSTFGLKAMGWYRQAPGKEREFVASINFNDGSTYYADSVKGRFTISRDNAKNTVYLQMNSLKPEDPAVYYCAVELWWKWPFYYWGQGTQVTVSS”: “high polyreactivity”; for “QVQLVESGGGLVQAGGSLRLSCAASGSTFVTYAMGWYRQAPGKEREFVAAISTTGTGRTYYADSVKGRFTISRDNAKNTVYLQMNSLKPEDTAVYYCAADLYGTYDYWGQGTQVTVSS”: “low polyreactivity”.
The entry for “QVQLVESGGGLVPSGGSLRLSCAASGGIFYFNAMGWYRQAPGKERELVASITWSGGNTYYADSVKGRFTISRDNAKNTVSLQMNSLKPEDTAVYYSAADTQEYRPTYDYWGQGTQVTVSS” is “low polyreactivity”.
